Data as given in US20220340642A1 (Kyowa Kirin, published 2022).

T1: membrane-bound human FasL (Met and FLAG tag at the N-terminus) on CHO-K1 cells (human, UniProt P48023 2-281)
T1 construct: also called FasL/CHO
T1 sequence: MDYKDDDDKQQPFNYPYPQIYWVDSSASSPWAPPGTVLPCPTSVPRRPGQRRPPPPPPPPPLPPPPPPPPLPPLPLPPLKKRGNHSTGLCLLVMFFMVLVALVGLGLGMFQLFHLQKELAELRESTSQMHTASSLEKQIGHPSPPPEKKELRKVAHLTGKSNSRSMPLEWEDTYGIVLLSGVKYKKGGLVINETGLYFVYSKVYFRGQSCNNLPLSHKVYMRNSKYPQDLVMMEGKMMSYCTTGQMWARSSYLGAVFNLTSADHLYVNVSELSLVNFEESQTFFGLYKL

T2: primary soluble FasL produced from human T cells stimulated for AICD (human, UniProt P48023 130-281, limits assumed)
T2 construct: also called soluble FasL derived from human T cells
T2 sequence (looked up): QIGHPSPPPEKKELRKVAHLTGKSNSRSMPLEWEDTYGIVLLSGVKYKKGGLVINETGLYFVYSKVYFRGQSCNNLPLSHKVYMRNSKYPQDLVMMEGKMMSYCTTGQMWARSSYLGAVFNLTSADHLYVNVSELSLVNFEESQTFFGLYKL


What was measured:
[1] = molecular target: T1, membrane-bound human FasL (Met and FLAG …); experiment: flow cytometry on expressing cells
Procedure, shortened: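 Binding was measured by flow cytometry on HEK293 cells forced to express membrane-bound LIGHT and on cell lines expressing N-terminally Met/FLAG-tagged TL1A or FasL from a CMV-promoter pClpuro vector. Cells at 1×10⁵ cells/well received 1 or 10 μg/mL protein on ice for 1 hour. After washing, cells were stained on ice for 1 hour with LIVE/DEAD Fixable Aqua and R-phycoerythrin goat F(ab′)₂ anti-human IgG (10 ng/mL, 0.1 or 1 μg/mL). Fluorescence was read on a FACS Fortessa.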

[2] = molecular target: T2, primary soluble FasL produced from …; experiment: sandwich ELISA, binder captured
Experimental: (§1) Then, 10 μg/mL of anti-human IgG antibodies (American Qualex International, Inc.) were immobilized to a 96-well immunoplate (Thermo Scientific), and blocking was performed with 2% Block Ace (DS Pharma Biomedical Co., Ltd.), and then 2 μg/mL of chimera A-Fc, E57K-Fc and 45-18-Fc (in all of which Fc is Eg1S YTE or Eg1S […]) were captured. The culture supernatant of human T cells stimulated for LIGHT production was concentrated 6-fold using Amicon Ultra-15 having a molecular weight cutoff of 3 kDa (Merck Millipore) prerinsed with sterile water. After the plate was washed, the 6-fold concentrated culture supernatant was reacted. As a standard of LIGHT, the soluble recombinant FLAG-LIGHT trimer produced in Example 13 was used. After the plate was washed, a biotinylated anti-LIGHT antibody (R&D Systems, Inc.) was reacted. After the plate was washed, streptavidin-HRP (PIERCE) was reacted. After washing again, a TMB solution (Dako) was added to develop a color. Then, a 2 N sulfuric acid solution was used to stop the chromogenic reaction, and the absorbance at 450 nm (reference wavelength of 570 nm) was measured.
(§2) Sandwich ELISA was performed by the same method as in (1). On a 96-well immunoplate, chimera A-Fc, E57K-Fc and 45-18-Fc (in all of which Fc is Eg1S YTE or Eg1S […]) or the anti-human TL1A antibody produced in Example 16 was captured. Then, with the plate, a 4-fold concentrated culture supernatant of PBMCs stimulated for TL1A production or as a standard, the soluble recombinant His6-TL1A trimer produced in Example 13 was reacted, followed by detection with a biotinylated anti-TL1A antibody (R&D Systems, Inc.).
(§3) Sandwich ELISA was performed by the same method as in (1). On a 96-well immunoplate, chimera A-Fc, E57K-Fc and 45-18-Fc (each including Eg1S YTE or Eg1S […] as an Fc) or Fas-Fc (R&D Systems, Inc.) was captured, and then a 6-fold concentrated culture supernatant of human T cells stimulated for AICD or as a standard, Human His6 Fas Ligand/TNFSF6 (Cell Signaling Technology, Inc.) was reacted, followed by detection with a biotinylated anti-FasL antibody included with Human Fas Ligand ELISA Kit (Abcam plc).

[3] = molecular target: primary soluble LIGHT produced from activated human T cells (human, UniProt O43557 83-240, limits assumed); experiment: sandwich ELISA, binder captured
Chain of primary soluble LIGHT produced from activated human T cells (O43557 83-240 limits assumed): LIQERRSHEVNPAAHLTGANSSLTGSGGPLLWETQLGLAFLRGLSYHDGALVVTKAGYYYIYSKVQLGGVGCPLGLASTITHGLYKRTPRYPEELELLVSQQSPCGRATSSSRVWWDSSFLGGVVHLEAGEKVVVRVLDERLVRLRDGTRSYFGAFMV
Experimental: as §1, §2, §3

Binder | binding result [1] | binding result [2] | binding result [3]
chimera A-E57K_R58D-Fc (Eg1S LALAGANA) (Fc fusion) ETFPPKYLHYDEETSHQLLCDKCPPGTYLKQHCTAKWKTVCAPCPPRHYTQFWNYLKDCRYCNVLCGEREEEARACHATHNRACRCRTGFFAHAGFCLEHASCPPGAGVIAPGTPSQNTQCQPCPDGFFSNETSSKAPCRKHTNCSVFGLLLTQKGNATHDNICSGNSESTQKEPKSSDKTHTCPPCPAPEAAGAPSVFLFPPKPKDTLMISRTPEVTCVVVDVSHEDPEVKFNWYVDGVEVHNAKTKPREEQYNSTYRVVSVLTVLHQDWLNGKEYKCKVSNKALPAPIEKTISKAKGQPREPQVYTLPPSRDELTKNQVSLTCLVKGFYPSDIAVEWESNGQPENNYKTTPPVLDSDGSFFLYSKLTVDKSRWQQGNVFSCSVMHEALHAHYTQKSLSLSPGK | binds | – | –
chimera A-E57R-Fc (Eg1S LALAGANA) (Fc fusion) ETFPPKYLHYDEETSHQLLCDKCPPGTYLKQHCTAKWKTVCAPCPPRHYTQFWNYLRRCRYCNVLCGEREEEARACHATHNRACRCRTGFFAHAGFCLEHASCPPGAGVIAPGTPSQNTQCQPCPDGFFSNETSSKAPCRKHTNCSVFGLLLTQKGNATHDNICSGNSESTQKEPKSSDKTHTCPPCPAPEAAGAPSVFLFPPKPKDTLMISRTPEVTCVVVDVSHEDPEVKFNWYVDGVEVHNAKTKPREEQYNSTYRVVSVLTVLHQDWLNGKEYKCKVSNKALPAPIEKTISKAKGQPREPQVYTLPPSRDELTKNQVSLTCLVKGFYPSDIAVEWESNGQPENNYKTTPPVLDSDGSFFLYSKLTVDKSRWQQGNVFSCSVMHEALHAHYTQKSLSLSPGK | binds | – | –
chimera A-E57R-Fc (Eg1S YTE) (Fc fusion) ETFPPKYLHYDEETSHQLLCDKCPPGTYLKQHCTAKWKTVCAPCPPRHYTQFWNYLRRCRYCNVLCGEREEEARACHATHNRACRCRTGFFAHAGFCLEHASCPPGAGVIAPGTPSQNTQCQPCPDGFFSNETSSKAPCRKHTNCSVFGLLLTQKGNATHDNICSGNSESTQKEPKSSDKTHTCPPCPAPELLGGPSVFLFPPKPKDTLYITREPEVTCVVVDVSHEDPEVKFNWYVDGVEVHNAKTKPREEQYNSTYRVVSVLTVLHQDWLNGKEYKCKVSNKALPAPIEKTISKAKGQPREPQVYTLPPSRDELTKNQVSLTCLVKGFYPSDIAVEWESNGQPENNYKTTPPVLDSDGSFFLYSKLTVDKSRWQQGNVFSCSVMHEALHNHYTQKSLSLSPGK | binds | – | –
chimera A-E57K_R58D-Fc (Eg1S YTE) (Fc fusion, also called 45-10-Fc (Eg1S YTE)) ETFPPKYLHYDEETSHQLLCDKCPPGTYLKQHCTAKWKTVCAPCPPRHYTQFWNYLKDCRYCNVLCGEREEEARACHATHNRACRCRTGFFAHAGFCLEHASCPPGAGVIAPGTPSQNTQCQPCPDGFFSNETSSKAPCRKHTNCSVFGLLLTQKGNATHDNICSGNSESTQKEPKSSDKTHTCPPCPAPELLGGPSVFLFPPKPKDTLYITREPEVTCVVVDVSHEDPEVKFNWYVDGVEVHNAKTKPREEQYNSTYRVVSVLTVLHQDWLNGKEYKCKVSNKALPAPIEKTISKAKGQPREPQVYTLPPSRDELTKNQVSLTCLVKGFYPSDIAVEWESNGQPENNYKTTPPVLDSDGSFFLYSKLTVDKSRWQQGNVFSCSVMHEALHNHYTQKSLSLSPGK | binds | – | –
chimera A-E57K_R58E-Fc (Eg1S YTE) (Fc fusion, also called 45-18-Fc (Eg1S YTE)) ETFPPKYLHYDEETSHQLLCDKCPPGTYLKQHCTAKWKTVCAPCPPRHYTQFWNYLKECRYCNVLCGEREEEARACHATHNRACRCRTGFFAHAGFCLEHASCPPGAGVIAPGTPSQNTQCQPCPDGFFSNETSSKAPCRKHTNCSVFGLLLTQKGNATHDNICSGNSESTQKEPKSSDKTHTCPPCPAPELLGGPSVFLFPPKPKDTLYITREPEVTCVVVDVSHEDPEVKFNWYVDGVEVHNAKTKPREEQYNSTYRVVSVLTVLHQDWLNGKEYKCKVSNKALPAPIEKTISKAKGQPREPQVYTLPPSRDELTKNQVSLTCLVKGFYPSDIAVEWESNGQPENNYKTTPPVLDSDGSFFLYSKLTVDKSRWQQGNVFSCSVMHEALHNHYTQKSLSLSPGK | binds | binds | binds

Continued, values first:

binding result [1] | binding result [2] | binding result [3] | Binder
binds | – | – | chimera A-E57V-Fc (Eg1S YTE) (Fc fusion) ETFPPKYLHYDEETSHQLLCDKCPPGTYLKQHCTAKWKTVCAPCPPRHYTQFWNYLVRCRYCNVLCGEREEEARACHATHNRACRCRTGFFAHAGFCLEHASCPPGAGVIAPGTPSQNTQCQPCPDGFFSNETSSKAPCRKHTNCSVFGLLLTQKGNATHDNICSGNSESTQKEPKSSDKTHTCPPCPAPELLGGPSVFLFPPKPKDTLYITREPEVTCVVVDVSHEDPEVKFNWYVDGVEVHNAKTKPREEQYNSTYRVVSVLTVLHQDWLNGKEYKCKVSNKALPAPIEKTISKAKGQPREPQVYTLPPSRDELTKNQVSLTCLVKGFYPSDIAVEWESNGQPENNYKTTPPVLDSDGSFFLYSKLTVDKSRWQQGNVFSCSVMHEALHNHYTQKSLSLSPGK
– | binds | binds | chimera A-Fc (Eg1S YTE) (Fc fusion) ETFPPKYLHYDEETSHQLLCDKCPPGTYLKQHCTAKWKTVCAPCPPRHYTQFWNYLERCRYCNVLCGEREEEARACHATHNRACRCRTGFFAHAGFCLEHASCPPGAGVIAPGTPSQNTQCQPCPDGFFSNETSSKAPCRKHTNCSVFGLLLTQKGNATHDNICSGNSESTQKEPKSSDKTHTCPPCPAPELLGGPSVFLFPPKPKDTLYITREPEVTCVVVDVSHEDPEVKFNWYVDGVEVHNAKTKPREEQYNSTYRVVSVLTVLHQDWLNGKEYKCKVSNKALPAPIEKTISKAKGQPREPQVYTLPPSRDELTKNQVSLTCLVKGFYPSDIAVEWESNGQPENNYKTTPPVLDSDGSFFLYSKLTVDKSRWQQGNVFSCSVMHEALHNHYTQKSLSLSPGK
– | binds | binds | chimera A-Fc (Eg1S LALAGANA) (Fc fusion) ETFPPKYLHYDEETSHQLLCDKCPPGTYLKQHCTAKWKTVCAPCPPRHYTQFWNYLERCRYCNVLCGEREEEARACHATHNRACRCRTGFFAHAGFCLEHASCPPGAGVIAPGTPSQNTQCQPCPDGFFSNETSSKAPCRKHTNCSVFGLLLTQKGNATHDNICSGNSESTQKEPKSSDKTHTCPPCPAPEAAGAPSVFLFPPKPKDTLMISRTPEVTCVVVDVSHEDPEVKFNWYVDGVEVHNAKTKPREEQYNSTYRVVSVLTVLHQDWLNGKEYKCKVSNKALPAPIEKTISKAKGQPREPQVYTLPPSRDELTKNQVSLTCLVKGFYPSDIAVEWESNGQPENNYKTTPPVLDSDGSFFLYSKLTVDKSRWQQGNVFSCSVMHEALHAHYTQKSLSLSPGK
binds | – | – | chimera A-E57V-Fc (Eg1S LALAGANA) (Fc fusion) ETFPPKYLHYDEETSHQLLCDKCPPGTYLKQHCTAKWKTVCAPCPPRHYTQFWNYLVRCRYCNVLCGEREEEARACHATHNRACRCRTGFFAHAGFCLEHASCPPGAGVIAPGTPSQNTQCQPCPDGFFSNETSSKAPCRKHTNCSVFGLLLTQKGNATHDNICSGNSESTQKEPKSSDKTHTCPPCPAPEAAGAPSVFLFPPKPKDTLMISRTPEVTCVVVDVSHEDPEVKFNWYVDGVEVHNAKTKPREEQYNSTYRVVSVLTVLHQDWLNGKEYKCKVSNKALPAPIEKTISKAKGQPREPQVYTLPPSRDELTKNQVSLTCLVKGFYPSDIAVEWESNGQPENNYKTTPPVLDSDGSFFLYSKLTVDKSRWQQGNVFSCSVMHEALHAHYTQKSLSLSPGK
